Assay results as given in the supplement of paper PMC10126150.
± gives the standard deviation of the averaged measurements.

The sequences below were run on ATP (assay: switch fluorescence ratio, 500 uM ATP over buffer (Cy3 cluster intensity, sum of 5 cycles each) (fold (ratio)); higher = stronger signal-on switching upon ATP binding; sequences stand for … in TCGTCGGCAGCGTCAGATGTGTATAAGAGACAGTTTTTTTTTTTTTTTTTTTTTTTTT…TC). Settings: aptamer strand: ATP DNA aptamer (quencher-CACCTGGGGGAGTATTGCGGAGGAAGG + anchor), 100 nM annealed; ATP concentration: 500 uM.
Procedure, shortened: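 Clusters with intensities outside 100-1000 RFU were excluded. The remaining Cy3-labelled switching-strand clusters on a modified Illumina MiSeq flow-cell had been annealed to 100 nM quencher-labelled ATP aptamer and imaged in selection buffer, then after 15 min with 500 uM ATP at 22 °C, for five cycles separated by NaOH stripping and re-annealing. The fluorescence ratio, averaged per switch-domain sequence, is each cluster's summed target-cycle Cy3 intensity over its summed buffer-cycle Cy3 intensity.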
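Further: ATP exposure 15 min at 22 °C before imaging.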

| Sequence | switch fluorescence ratio |
| --- | --- |
| ACGGGGGTTA | 1.02 ± 0.024 |
| GCTGCTGTAT | 1.01 ± 0.022 |
| GCGGGGGACT | 0.997 ± 0.016 |
| CGGATCTGGT | 0.968 ± 0.024 |
| TTAAGTAAGG | 1.03 ± 0.016 |
| TGCGTCGGCG | 1 ± 0.013 |
| GGTATATCTT | 1.01 ± 0.076 |
| AGGTCGGCAA | 1.02 ± 0.014 |
| CTTCTATAAC | 1.07 ± 0.02 |
| TGAGCCGCGG | 1.004 ± 0.0095 |
| TGAGTATAGG | 1.009 ± 0.003 |
| GTCTTTGTTA | 1.01 ± 0.022 |
| GTGTGTTGGG | 0.984 ± 0.026 |
| TATATAAGAA | 1.01 ± 0.033 |
| GTGAACGGCG | 1.06 ± 0.014 |
| TATATGTGAT | 0.987 ± 0.017 |
| GCTGGGGGAG | 0.982 ± 0.067 |
| AAGCTCTGTG | 0.95 ± 0.027 |
| CAGTTATTCG | 0.977 ± 0.014 |
| CGGGGTCGTG | 0.9904 ± 0.0035 |
| TATGCATGGA | 1.009 ± 0.0082 |
| TTTAAGGCGG | 0.989 ± 0.044 |
| GGTGAGGGAG | 0.9998 ± 0.0044 |
| TCTTATCTGG | 0.972 ± 0.012 |
| AGAGTTGGCT | 0.992 ± 0.021 |

| Sequence | switch fluorescence ratio |
| --- | --- |
| GGGGGGCAGT | 1 ± 0.023 |
| TTAAGTGGTG | 1.01 ± 0.017 |
| GCCCAAGGA | 1.028 ± 0.0062 |
| GTTAGGGTAG | 0.992 ± 0.025 |
| AGAGGTTGTT | 0.995 ± 0.038 |
| ATTTTTTGAC | 0.9915 ± 0.0011 |
| GGTCTAGG | 0.992 ± 0.036 |
| GACGGCTGCT | 1.01 ± 0.0042 |
| CTTTAGCCGG | 1.02 ± 0.049 |
| CGATTTTAGG | 1 ± 0.035 |
| TGGTTCGAT | 0.978 ± 0.015 |
| TTTCCTGACG | 1.06 ± 0.028 |
| CGGCCTTGGT | 1.01 ± 0.044 |
| AACAGTTTTA | 0.972 ± 0.011 |
| TTATACATGG | 1.07 ± 0.0024 |
| GTCAATTTGT | 1.02 ± 0.018 |
| GTGCGAAATC | 1.25 ± 0.033 |
| GATAGATGTT | 0.979 ± 0.02 |
| GTGTTCTAAA | 1.03 ± 0.041 |
| TTACAGGTTC | 1.031 ± 0.0019 |
| CAGAGGATAT | 1.021 ± 0.01 |
| CGGTGAATAT | 0.9712 ± 0.0087 |
| GGGGTTATAG | 1.04 ± 0.12 |
| ACATCTAGGC | 1.069 ± 0.0093 |
| ATGGGTAGTT | 0.977 ± 0.022 |

| Sequence | switch fluorescence ratio |
| --- | --- |
| GGGTTCATTG | 0.974 ± 0.033 |
| TAGGGCACGG | 1.02 ± 0.035 |
| AGGTTGAAGC | 0.993 ± 0.017 |
| TTGCTTCGGG | 0.968 ± 0.028 |
| TCATCCTAGC | 1.19 ± 0.062 |
| CGAAGGGAAT | 1.03 ± 0.033 |
| GGATGTGCTG | 1.04 ± 0.049 |
| CGCCTCATTT | 1 ± 0.03 |
| GGACACTCTG | 0.977 ± 0.013 |
| CTGGTGGATT | 0.996 ± 0.024 |
| TCTTTTATGG | 1.04 ± 0.093 |
| GTGCGAACTT | 1.015 ± 0.0028 |
| CGGGGGACT | 1.61 ± 0.85 |
| GCGTAGATGG | 1.006 ± 0.0087 |
| CATGTAAGGA | 0.985 ± 0.015 |
| GTGCATGCGT | 0.998 ± 0.03 |
| AACTTCTATT | 1.016 ± 0.00089 |
| TTCCGGGGAA | 1.16 ± 0.21 |
| AAGACGTTTT | 1.014 ± 0.0011 |
| GGCTTAAAAA | 0.982 ± 0.021 |
| ACGTCCGATC | 1.11 ± 0.039 |
| TTCCTTGTAG | 1.02 ± 0.017 |
| GTGGGGCATT | 0.9905 ± 0.0086 |
| GTTGTGGCTC | 0.975 ± 0.036 |
| ATTGATGATT | 0.993 ± 0.0075 |

| Sequence | switch fluorescence ratio |
| --- | --- |
| GTTTCTAGCT | 0.969 ± 0.028 |
| TGTTTTTTTC | 1.06 ± 0.04 |
| TCCGGGCAGG | 1.14 ± 0.023 |
| TTTTAACTGT | 1.01 ± 0.038 |
| CGTCGCGGCA | 0.989 ± 0.026 |
| TGGGGCCCGA | 1.02 ± 0.037 |
| CCGCATTTGT | 2.68 ± 2.4 |
| CGGCAAGTAT | 1.063 ± 0.0089 |
| ACACTTTCG | 1.018 ± 0.0011 |
| AAGGGGGTAC | 1.38 ± 0.77 |
| TAGTCGGGTT | 0.9613 ± 0.0059 |
| GTAATTGTTA | 1 ± 0.015 |
| GTGTTAAGGA | 0.995 ± 0.02 |
| GTTGTTGGTG | 1.01 ± 0.015 |
| TTTTAAACGT | 1.04 ± 0.039 |
| TGCGGCGACG | 0.993 ± 0.015 |
| GTTTGGATAT | 0.963 ± 0.01 |
| TGCAATATAT | 1.14 ± 0.01 |
| CGATTATCGG | 0.999 ± 0.014 |
| AGGGGGATGT | 0.974 ± 0.05 |
| CAGAAGGATA | 1.03 ± 0.013 |
| TTTAAGGTGG | 1.015 ± 0.0046 |
| TCAGGGTCAG | 1.007 ± 0.0063 |
| TGCCTAAGAT | 1 ± 0.021 |
| GTAGTAAGCG | 0.953 ± 0.045 |

| Sequence | switch fluorescence ratio |
| --- | --- |
| GGTTTTTTTT | 0.992 ± 0.03 |
| AAGAGCTTTG | 0.99 ± 0.013 |
| ACGTATGGCT | 0.973 ± 0.021 |
| ATGTTTTCTC | 0.993 ± 0.013 |
| AAAGAATTTT | 1 ± 0.05 |
| ATTCCGATTG | 1.07 ± 0.031 |
| ATCATAGGGG | 1 ± 0.016 |
| TTTGACTGAG | 0.997 ± 0.023 |
| AACTTTTTAC | 1.05 ± 0.028 |
| GGGATAATTT | 0.988 ± 0.017 |
| GATTGCATCG | 0.9937 ± 0.0013 |
| TACGCTATAA | 2.824 ± 0.0042 |
| GATTTGGAGG | 0.97361 ± 7.9e-05 |
| GAAAATTGCC | 0.978 ± 0.075 |
| TGTTAGAGGC | 1.03 ± 0.1 |
| TGGGTCGGCT | 1.06 ± 0.1 |
| AAGTAGGAGC | 1.06 ± 0.19 |
| CCAAGGAGTC | 0.992 ± 0.024 |
| CGTCATGTCT | 1 ± 0.065 |
| GATTTAAGAG | 0.988 ± 0.029 |
| AGTTTCTGTG | 0.968 ± 0.059 |
| ATTATTGATA | 0.997 ± 0.036 |
| TATGGGACTC | 1.032 ± 0.0025 |
| TCGCGTTTGC | 1.06 ± 0.054 |
| AGGGGTACTC | 0.9982 ± 0.0076 |

| Sequence | switch fluorescence ratio |
| --- | --- |
| GATGTACAGA | 1.13 ± 0.019 |
| TATTGGGGAG | 1.13 ± 0.29 |
| TTTTAACAGG | 1.02 ± 0.08 |
| GCGAAAGGAA | 1.12 ± 0.14 |
| TTTAATGAAC | 1 ± 0.074 |
| CAGGCTGGAC | 1.06 ± 0.046 |
| TCCATAGGGC | 1.002 ± 0.0048 |
| GAAGGGGTTC | 1.06 ± 0.084 |
| ATCATACGGG | 1.03 ± 0.02 |
| ATGGATTTGC | 1.02 ± 0.081 |
| TATATGGCGG | 0.9719 ± 0.0074 |
| GTGTGTTTAG | 0.9892 ± 0.0058 |
| GTAATTGGGA | 1.022 ± 0.0011 |
| TTACTTCATA | 1.021 ± 0.0045 |
| TTAATCTGAG | 1.02 ± 0.012 |
| TTTAGTTGCC | 0.984 ± 0.058 |
| CGTTTTGGTT | 0.976 ± 0.021 |
| ATGTCGGTCG | 1.02 ± 0.012 |
| CGGTTTTGCG | 0.985 ± 0.024 |
| AATTTGTTTG | 1 ± 0.013 |
| CCGGGTATTG | 1.027 ± 0.0036 |
| CGGGTGATCG | 0.96 ± 0.043 |
| TGGTGTCACG | 0.983 ± 0.017 |
| TTAGTGAGGG | 0.99 ± 0.042 |
| GTTTTTTGGG | 1 ± 0.042 |

| Sequence | switch fluorescence ratio |
| --- | --- |
| GTGATTCGGG | 0.972 ± 0.013 |
| CAGGATACGC | 1.21 ± 0.34 |
| TAAGTTTTCA | 1.02 ± 0.023 |
| GTTAAAATTT | 1.001 ± 0.0014 |
| TATAGATTTT | 1.003 ± 0.0078 |
| TTTAAGAAGT | 1 ± 0.027 |
| TAATTTCCTT | 1.06 ± 0.16 |
| GGGGATAGAG | 1.01 ± 0.015 |
| TTTTCAAGGT | 0.992 ± 0.019 |
| CGGCGCTTCT | 1.1 ± 0.028 |
| GCTTCCGGGG | 1.27 ± 0.06 |
| CGTTGATGGT | 0.992 ± 0.02 |
| CAGGGAGCTT | 1.01 ± 0.03 |
| CACTGAGCTG | 1.07 ± 0.077 |
| TCGGAGAATG | 1.003 ± 0.01 |
| GAGGTATGGA | 0.9842 ± 0.0019 |
| ATGTTGAGCT | 1.019 ± 0.0023 |
| CCGGGGTGGT | 1.07 ± 0.035 |
| CATCGAGTTC | 1.05 ± 0.025 |
| TCAATGGGGC | 0.979 ± 0.044 |
| GACCCTGGGT | 1.06 ± 0.033 |
| GGGAGTATAG | 0.9907 ± 0.0089 |
| ACGTATGAAA | 1.09 ± 0.059 |
| TTTGATGAGT | 1.01 ± 0.013 |
| AGGGGGTTAG | 0.989 ± 0.03 |

| Sequence | switch fluorescence ratio |
| --- | --- |
| TTGGAGTTGG | 0.976 ± 0.043 |
| ATATTGAGGT | 1 ± 0.013 |
| ACAACGGCCG | 1.05 ± 0.012 |
| GACGTGTGAG | 0.993 ± 0.034 |
| TAAAATGGAA | 1.05 ± 0.1 |
| ATGGGAGAAT | 0.9801 ± 0.009 |
| TGCAGTAATA | 1.53 ± 0.13 |
| GGGGAAGAGG | 0.983 ± 0.011 |
| ATTGGCTTTT | 0.965 ± 0.011 |
| AATGTTTTGT | 0.994 ± 0.021 |
| TTCGGATAAA | 1.01 ± 0.058 |
| AGGTTAGAGG | 0.993 ± 0.016 |
| AAGAGGGGAC | 0.996 ± 0.056 |
| ATGTTTTTTG | 0.982 ± 0.023 |
| TTTAAAGGGT | 1.01 ± 0.031 |
| AGTCGATGTC | 0.9763 ± 0.0039 |
| GGGGATGAAA | 0.989 ± 0.011 |
| GAACCTAGAG | 0.98 ± 0.056 |
| TGGTTTTTGG | 0.989 ± 0.018 |
| CTCTTGTGTT | 1.02 ± 0.048 |
| GTCTAAATCG | 0.981 ± 0.015 |
| TTGTCGGATT | 0.991 ± 0.021 |
| GCATAATTTT | 1.01 ± 0.028 |
| ATATGTGACG | 1 ± 0.033 |
| GGTATCTGTA | 1 ± 0.023 |
